Laboratory results from article PMC2174359 (The Journal of Cell Biology, 2000).

Target: Sec13/31p complex (S. cerevisiae, UniProt Q04491 1-297; P38968 1-1273)
Experiment: co-sedimentation

Sec13/31p complex, sequence (Q04491 whole entry, chain 1 of 2): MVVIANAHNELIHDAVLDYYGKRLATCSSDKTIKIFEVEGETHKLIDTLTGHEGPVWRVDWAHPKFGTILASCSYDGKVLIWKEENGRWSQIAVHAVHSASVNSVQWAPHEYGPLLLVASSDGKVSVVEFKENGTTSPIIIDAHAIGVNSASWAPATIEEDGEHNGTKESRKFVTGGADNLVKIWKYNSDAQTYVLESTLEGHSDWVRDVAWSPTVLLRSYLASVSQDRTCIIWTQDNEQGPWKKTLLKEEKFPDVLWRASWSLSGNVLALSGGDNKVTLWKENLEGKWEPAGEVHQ
Sec13/31p complex, sequence (P38968 whole entry, chain 2 of 2): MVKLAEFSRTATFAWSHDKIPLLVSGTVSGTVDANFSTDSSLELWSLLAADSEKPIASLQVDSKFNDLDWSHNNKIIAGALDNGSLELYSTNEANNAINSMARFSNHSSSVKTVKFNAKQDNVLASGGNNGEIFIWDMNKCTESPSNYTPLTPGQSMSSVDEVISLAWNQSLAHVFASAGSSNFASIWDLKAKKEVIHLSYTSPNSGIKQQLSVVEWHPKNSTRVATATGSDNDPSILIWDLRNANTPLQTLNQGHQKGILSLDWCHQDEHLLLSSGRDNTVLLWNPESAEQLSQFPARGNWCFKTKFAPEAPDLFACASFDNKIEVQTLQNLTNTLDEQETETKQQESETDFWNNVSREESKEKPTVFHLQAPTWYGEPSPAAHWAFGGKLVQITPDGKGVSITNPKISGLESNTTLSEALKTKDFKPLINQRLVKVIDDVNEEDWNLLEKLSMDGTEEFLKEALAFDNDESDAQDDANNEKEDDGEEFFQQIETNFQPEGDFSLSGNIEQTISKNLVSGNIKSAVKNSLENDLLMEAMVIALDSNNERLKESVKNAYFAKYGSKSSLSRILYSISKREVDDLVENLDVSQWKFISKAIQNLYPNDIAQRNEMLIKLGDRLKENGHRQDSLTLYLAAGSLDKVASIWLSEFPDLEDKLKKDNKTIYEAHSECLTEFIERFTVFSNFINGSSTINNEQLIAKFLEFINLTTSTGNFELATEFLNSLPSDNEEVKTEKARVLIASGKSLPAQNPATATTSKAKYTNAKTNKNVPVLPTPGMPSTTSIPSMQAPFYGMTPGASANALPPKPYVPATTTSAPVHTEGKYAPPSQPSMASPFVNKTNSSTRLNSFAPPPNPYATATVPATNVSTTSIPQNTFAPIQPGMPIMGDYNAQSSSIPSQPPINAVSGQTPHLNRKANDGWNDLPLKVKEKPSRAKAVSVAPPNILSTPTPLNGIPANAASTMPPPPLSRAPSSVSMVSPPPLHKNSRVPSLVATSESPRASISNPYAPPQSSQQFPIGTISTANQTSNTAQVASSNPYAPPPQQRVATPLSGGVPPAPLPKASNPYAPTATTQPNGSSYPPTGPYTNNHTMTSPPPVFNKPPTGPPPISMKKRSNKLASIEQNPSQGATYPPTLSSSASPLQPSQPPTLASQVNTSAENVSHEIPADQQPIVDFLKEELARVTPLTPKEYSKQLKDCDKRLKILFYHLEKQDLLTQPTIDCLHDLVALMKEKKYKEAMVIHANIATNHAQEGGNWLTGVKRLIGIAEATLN

binding result: binds
B1: Lst1p, His6-tagged (LST1-His6) (natural protein, S. cerevisiae, UniProt P38810 1-929, looked up)
chain: MSQQNILAASVSALSLDESTVHTGGASSKKSRRPHRAYHNFSSGTVPTLGNSPYTTPQLNQQDGFQQPQAFTPKQFGGFNNGSGSVMSTPVMVSQERFGASEASSPYGQSMLDMTAPQPTSHIVPTQRFEDQAQYLQRSFETCRDSVPPLPTTQFYCVDQGSCDPHLMSLSMYNIPESEHLRAATKLPLGLTIQPFSTLTPNDAEVPTIPLPMDGTPLRCRRCRAYANPKFQFTYDSSVICNICRVKMQVPGEHFAPMGPNGQRSDLNEKSELLHGTVDFLVPSIYNAIQEKELLPLHYVFLIDVSLLANENGSSLAMVEGVRSCIEYISDFQPNCEVAIIVYDNKLRFFNLRPDLDNAQEYIVSELDDVFLPFYNGLFVKPGNSMKIINDTLIKISGYISTDKYSHVPQVCYGSALQAAKLALDTVTGGQGGKIICSLNSLPTIGNGNLSLKRDNAHIAHVKCDNGFYKKLASDFLKSYISLDLYVTNAGFIDMATVGHPVEMTSGILKYYPHFQQETDAFTLVNDMVTNVSNIVGYQALLKVRCSTGLSVEQYYCDSSDNTDHDPIIPVLTRDTTLDVLLKYDSKIKTGTDVHFQTALLYTDIDGVRKVRSINTSGAVSNNIREIFKFINQNPVMRIMIKDVIKTLGDCDFVKIRRLIDDKMVEILTQYRGLVSSNSSTQLILPDSIKTLPAYMLAFEKSELMKPNAQSTRGNERIYDLLKYDSLNSAQLCYKLYPQIVPFHVLLEETDLTFYDANDKLLQINSSSINNLSVRASHSNFINGGCYLIFQGDTIYLWFNENTNRMLLQDLLSVDESLPVSQISLFSGTLPETGTSINQKASNVIKNWQQVVNKSSLPLVLLRPNVDQYYSNVMSQLLCEDKTVNRIESYDNYLVIMHKKIQEKLQKDDFIKVSTAATHENIHQKFVQF
